{"source": "patent US20190185575A1", "about": "(ONCOTHERAPY SCIENCE, published 2019)", "binders": {"B1": {"name": "anti-MELK mouse monoclonal antibody clone OTSMAb01 (antibody, V domains shown)", "VH": "EVQLQQSGAELVRPGALVKLSCKASGFNIKDYYMHWVKQRPEQGLEWIGWIDPENGNTIYDPKFQGKASVTADTSSNTAYLQLSSLTSEDTAVYYCTSHHYSAMDYWGQGTSVTVSS", "VL": "DVVMTQTPLSLPVSLRDQASISCRSSQSLVHSNGNTYLHWYLQKPGQSPKLLIYKVSNRFSGVPDRFSGSGSGTDFTLIISRVEAEDLGVYFCSQSTYVPLTFGAGTKLELKR", "notes": "Mouse monoclonal antibody from a hybridoma (Balb/c splenocytes x SP2/0), purified from culture solution on a Protein A column; also called anti-MELK antibody (OTSMAb01); hybridoma clone OTSMAb01"}}, "target": "T1, human MELK protein (Maternal Embryonic Leucine zipper Kinase), full-length (human, UniProt Q14680 1-651)", "T1 construct": "It was detected in formalin-fixed paraffin sections (IHC) or in RIPA lysates after SDS-PAGE (western blot); MELK is an intracellular kinase, so 'on cells' here means in cells or sections; also called full-length MELK protein; endogenous MELK protein", "T1 sequence (Q14680 whole entry)": "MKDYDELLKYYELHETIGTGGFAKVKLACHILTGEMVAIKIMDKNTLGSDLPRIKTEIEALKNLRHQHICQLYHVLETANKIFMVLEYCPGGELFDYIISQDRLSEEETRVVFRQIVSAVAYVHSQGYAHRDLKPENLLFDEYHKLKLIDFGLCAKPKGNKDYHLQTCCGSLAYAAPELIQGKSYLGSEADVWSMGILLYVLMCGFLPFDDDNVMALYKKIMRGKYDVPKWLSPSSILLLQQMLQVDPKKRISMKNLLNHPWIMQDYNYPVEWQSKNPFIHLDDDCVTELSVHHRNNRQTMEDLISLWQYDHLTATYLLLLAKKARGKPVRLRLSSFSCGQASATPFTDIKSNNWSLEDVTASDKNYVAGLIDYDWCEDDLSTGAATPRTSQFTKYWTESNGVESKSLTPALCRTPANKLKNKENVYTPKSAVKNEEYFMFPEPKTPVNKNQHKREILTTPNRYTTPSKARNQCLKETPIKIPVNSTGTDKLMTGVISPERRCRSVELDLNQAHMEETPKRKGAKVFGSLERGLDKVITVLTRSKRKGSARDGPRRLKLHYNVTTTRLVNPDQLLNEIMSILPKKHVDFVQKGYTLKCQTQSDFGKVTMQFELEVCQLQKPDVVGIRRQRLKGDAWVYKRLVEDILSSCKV", "assay": "immunohistochemical staining of formalin-fixed paraffin sections, MELK/293T vs Mock/293T", "experimental": "For antigen activation, sections immersed in the antigen-activating solution, pH 9 (Nichirei Biosciences Inc.) were incubated at 125° C. for 30 seconds. After incubation, these were left to stand for 20 minutes at room temperature, and washed for 5 minutes under running water. After immersing them in 3.0% hydrogen peroxide water for 10 minutes to perform blocking of endogenous peroxidase, they were washed with Wash Buffer (TBS-T (Takara Bio)) three times for 5 minutes. Furthermore, with the aim of blocking non-specific reactions, a suitable amount of Protein Block Solution (Dako) was dropped onto the sections and then left to stand for 10 minutes. The primary antibodies (OTSMAb01, MELK(N449)pAb, MELK(HPA017214)pAb) were respectively dropped in suitable amounts within a humid box, left to stand for 60 minutes, and then washed with the Wash Buffer three times for 5 minutes. Histofine Simple Stain MAX PO (Nichirei Biosciences Inc.) was dropped in suitable amounts as the secondary antibody in a humid box, and left to stand for 30 minutes. These were then washed with the Wash Buffer three times for 5 minutes. The chromogenic reaction was done using the DAB substrate solution (Nichirei Biosciences Inc.). The slide sections were immersed for 20 seconds in haematoxylin (Dako), and washed under running water. […]", "data": [{"binder": "B1", "values": [{"measurement": "binding result", "value": "binds"}]}]}
